The assay addresses Met1-linked tri-ubiquitin chain (UniProt P0CG48 1-76; P0CG48 1-76; P0CG48 1-76). Kind of assay: SPR. On the technique in general: Surface plasmon resonance follows binding to a sensor surface in real time, without labels.

Met1-linked tri-ubiquitin chain, sequence (P0CG48 1-228, one chain of several): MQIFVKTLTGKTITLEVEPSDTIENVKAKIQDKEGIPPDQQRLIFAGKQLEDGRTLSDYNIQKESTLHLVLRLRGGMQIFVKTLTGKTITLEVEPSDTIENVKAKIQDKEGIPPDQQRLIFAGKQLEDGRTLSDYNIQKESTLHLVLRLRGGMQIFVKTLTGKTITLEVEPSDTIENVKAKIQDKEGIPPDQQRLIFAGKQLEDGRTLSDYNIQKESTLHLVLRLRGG

B1: His-tagged AIRAPL tUIM (residues 188-240), wild type (domain or fragment, mouse, UniProt Q91X58 188-240, looked up)
chain: PVIALQNGLSEDEALQRALELSLAEAKPQVLSSQEEDDLALAQALSASEAEYQ
For B1, the binding result was “binds”.
